Assay results taken from patent publication US20030170252.

Test system: p33^QIK, quiescence induced kinase, 33-kDa Krsl-related cytoplasmic protein kinase, endogenous in mouse NIH3T3 cytosolic lysate (S20)

## Protein phosphatase 1 (PP1) (NE BioLabs)
  kinase activity of p33^QIK in Ab-KQ immune complexes after phosphatase treatment (in-gel kinase assay, MBP substrate): treatment of activated p33^QIK with protein phosphatase PP1 ... resulted in deactivation of p33^QIK This deactivation was suppressed by phosphatase inhibitors
